Measured values from the supplement of paper PMC10724198.
± gives the standard deviation of the averaged measurements.
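Further: PSI is a weighted mean of sequencing reads over stability bins, variants kept only with over 10 reads, mCherry proximal and sfGFP distal, peptide attached via GGGS linker.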

What follows are sequences tested on Saccharomyces cerevisiae (assay: protein stability index of tFT-peptide fusion (C-terminal peptide) (PSI (0-1 scale)); higher = more stable (slower turnover)). Details: genetic background: wild type; temperature: 30 C.
Procedure: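 Multiplexed protein stability (MPS) profiling in S. cerevisiae. Random 12-aa peptides (tFT-X12 library) are fused to the C-terminus of a sfGFP-mCherry tandem fluorescent timer, after mCherry and a GGGS linker. Cells are FACS-sorted into 8 mCherry/sfGFP bins and deep-sequenced. The protein stability index (PSI) is the read-weighted bin average, scaled from 0 (unstable) to 1 (stable). Only peptides with >10 reads are reported; cells were grown at 30 °C in SC-His with glucose.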
AAAPWSVSGCPG gave a protein stability index of 0.6611 ± 0.0049.
AACLCATYPVGT gave a protein stability index of 0.752 ± 0.07.
Sequence AAGTVFCRITWD has a protein stability index of 0.678 ± 0.022.
For AAIFDSIRKDLR, the protein stability index was 0.69 ± 0.039.
In the case of AAISGELRVWVL, the protein stability index is reported as 0.642 ± 0.0081.
In the case of AAKQIPRYRTTG, the protein stability index is reported as 0.716 ± 0.078.
With AALRLVEDKSTW the protein stability index was 0.71 ± 0.059.
With AAPAGAAKRWGT the protein stability index was 0.641 ± 0.035.
AAPRGRGRFAAA gave a protein stability index of 0.699 ± 0.024.
AARFRAVPVFGN showed a protein stability index of 0.661 ± 0.037.
Work on AARPLGLPSASG yielded a protein stability index of 0.7113 ± 0.0062.
AARQRWSLEFLD gave a protein stability index of 0.65 ± 0.1.
AASPPPRISAWL showed a protein stability index of 0.746 ± 0.02.
For AATDWFHLPFPP, the protein stability index was 0.682 ± 0.15.
With ACLCLPGVRVGG the protein stability index was 0.625 ± 0.038.
ACPDARNAGTQR gave a protein stability index of 0.708 ± 0.022.
ACSPPPLLPPPL gave a protein stability index of 0.737 ± 0.016.
For ACSSSLPPSSPP, the protein stability index was 0.671 ± 0.0078.
Sequence ACVPGGFVWGGV has a protein stability index of 0.754 ± 0.065.
In the case of ACYEYRPSPASC, the protein stability index is reported as 0.728 ± 0.053.
With ADENFKVRKRRS the protein stability index was 0.703 ± 0.057.
ADQVGRAVIIAS was tested, and the protein stability index was 0.644 ± 0.0074.
In the case of ADRVHLNGLEML, the protein stability index is reported as 0.747 ± 0.0093.
Sequence AEEWPVRAGGRG has a protein stability index of 0.609 ± 0.056.
For AEGCHIRVHWGV, the protein stability index was 0.7265 ± 0.0066.
AEGYRGECSGCM gave a protein stability index of 0.622 ± 0.052.
For AEVRGTVGRLVG, the protein stability index was 0.632 ± 0.011.
Sequence AFAFSVLTGWGV has a protein stability index of 0.638 ± 0.072.
AFGAPVVRHATF gave a protein stability index of 0.723 ± 0.02.
AFGFCKVLSSGC showed a protein stability index of 0.68 ± 0.013.
For AFLVGYSGVGYV, the protein stability index was 0.687 ± 0.032.
AFPLPPPPPPKP showed a protein stability index of 0.708 ± 0.012.
With AFPPDVPPLTPL the protein stability index was 0.72 ± 0.1.
In the case of AFRGFLSVNFNL, the protein stability index is reported as 0.7338 ± 0.005.
AFSYRAVIALLP was tested, and the protein stability index was 0.683 ± 0.018.
For AFVLGSWSWWRA, the protein stability index was 0.715 ± 0.015.
Work on AGAGEHCDGVVG yielded a protein stability index of 0.641 ± 0.0096.
For AGAGGGGWWGGV, the protein stability index was 0.76 ± 0.054.
AGAGGGQGKGRE gave a protein stability index of 0.639 ± 0.019.
AGALYGNPCPPL showed a protein stability index of 0.657 ± 0.019.
AGARLEWVVAGR showed a protein stability index of 0.7539 ± 0.0045.
In the case of AGCRFRWHTVDC, the protein stability index is reported as 0.648 ± 0.073.
AGGAGWGLVLGC showed a protein stability index of 0.647 ± 0.082.
Sequence AGGGGGDAGRGV has a protein stability index of 0.744 ± 0.078.
AGGGRRRLDGGR showed a protein stability index of 0.703 ± 0.0086.
AGGRGGGLGLWC showed a protein stability index of 0.724 ± 0.1.
Sequence AGIDYLSVGGSL has a protein stability index of 0.728 ± 0.074.
With AGLDRFLVIWGI the protein stability index was 0.6106 ± 0.0061.
Sequence AGLLGVVGGRFG has a protein stability index of 0.6993 ± 0.00076.
Work on AGLRMALGVGIP yielded a protein stability index of 0.6975 ± 0.0065.
With AGRGGTGIGERV the protein stability index was 0.63 ± 0.072.
In the case of AGRTGVLGGHVP, the protein stability index is reported as 0.691 ± 0.0095.
In the case of AGRVGRRGPPNR, the protein stability index is reported as 0.629 ± 0.038.
With AGSLPLLYPSLR the protein stability index was 0.745 ± 0.015.
In the case of AGSSGGGAWWGE, the protein stability index is reported as 0.681 ± 0.12.
With AGSSLVVAWHGV the protein stability index was 0.673 ± 0.028.
AGTALVFNGSKA gave a protein stability index of 0.7209 ± 0.0045.
For AGVVARTRRDGG, the protein stability index was 0.708 ± 0.035.
In the case of AGVVGRMGWGAT, the protein stability index is reported as 0.707 ± 0.041.
AHEAHPITPRGP gave a protein stability index of 0.695 ± 0.042.
AHFQDSTSPATI gave a protein stability index of 0.722 ± 0.017.
Sequence AHGASGNRSHNQ has a protein stability index of 0.644 ± 0.037.
With AHPPPPPPPPAP the protein stability index was 0.677 ± 0.14.
AHPPPSPPFPRH was tested, and the protein stability index was 0.658 ± 0.015.
Sequence AHQEAIIPTIGK has a protein stability index of 0.694 ± 0.087.
AHVYGCGGGGMT showed a protein stability index of 0.734 ± 0.055.
With AHWYPAGQCSRL the protein stability index was 0.804 ± 0.13.
AICSVRSGITLS gave a protein stability index of 0.6529 ± 0.0019.
With AIGPLTCFFAFL the protein stability index was 0.695 ± 0.079.
AIILGPPIGWTK gave a protein stability index of 0.757 ± 0.026.
AILGYFSLVEPP showed a protein stability index of 0.542 ± 0.013.
Sequence AIPRPPRVWGHL has a protein stability index of 0.727 ± 0.016.
Work on AISVISNLTKLE yielded a protein stability index of 0.617 ± 0.034.
In the case of AIVASAPSLGRS, the protein stability index is reported as 0.658 ± 0.038.
For AKDSSPTFTSPH, the protein stability index was 0.673 ± 0.032.
AKDSTAVVRLGT gave a protein stability index of 0.703 ± 0.029.
AKKTKSRANSDL was tested, and the protein stability index was 0.701 ± 0.085.
AKRKEAGKPHAN showed a protein stability index of 0.695 ± 0.085.
In the case of AKRQRQQKKDKG, the protein stability index is reported as 0.626 ± 0.014.
Work on AKSSLGSSYKTL yielded a protein stability index of 0.761 ± 0.064.
AKYPLTRCLFGS gave a protein stability index of 0.705 ± 0.033.
In the case of ALASPPPTPSLV, the protein stability index is reported as 0.638 ± 0.0068.
In the case of ALEFRDASLPVQ, the protein stability index is reported as 0.682 ± 0.068.
In the case of ALFVVLSGLSLR, the protein stability index is reported as 0.616 ± 0.017.
Sequence ALGGKDQSRSSS has a protein stability index of 0.699 ± 0.019.
With ALLGGQLVWNSK the protein stability index was 0.667 ± 0.14.
With ALLLPFPPPPPP the protein stability index was 0.559 ± 0.03.
Work on ALLLSHFLFFYA yielded a protein stability index of 0.524 ± 0.028.
In the case of ALLSRFFPAFFF, the protein stability index is reported as 0.604 ± 0.021.
Work on ALPLPAPSSIPS yielded a protein stability index of 0.712 ± 0.029.
For ALPNPLLPPAPP, the protein stability index was 0.612 ± 0.026.
ALPPGSRPLIPS gave a protein stability index of 0.628 ± 0.024.
For ALPRFPATSFPT, the protein stability index was 0.695 ± 0.04.
For ALPRPPSPFSPL, the protein stability index was 0.666 ± 0.078.
For ALRGRTTPPSHT, the protein stability index was 0.726 ± 0.086.
ALSEAITLPVNP gave a protein stability index of 0.674 ± 0.085.
ALVPPDPTPPPP showed a protein stability index of 0.699 ± 0.047.
ALVQAAPPGRTP showed a protein stability index of 0.6864 ± 0.0049.
Sequence ALVTLRRVVDLV has a protein stability index of 0.601 ± 0.08.
Work on AMGILSHLTACW yielded a protein stability index of 0.659 ± 0.048.
ANKIRMKYMRTG showed a protein stability index of 0.6139 ± 0.0027.
Work on ANKKKKKIKTKH yielded a protein stability index of 0.757 ± 0.12.
With ANSRPASSTRLR the protein stability index was 0.857 ± 0.2.
Work on APAWSFFGLDKS yielded a protein stability index of 0.702 ± 0.015.
APEGGEAQVLPA showed a protein stability index of 0.6842 ± 0.0022.
For APFAPRRPLPPP, the protein stability index was 0.612 ± 0.094.
Work on APFRHKANEPGE yielded a protein stability index of 0.706 ± 0.037.
Work on APIQPGEDKLKR yielded a protein stability index of 0.64 ± 0.0099.
APIQPRAPPRAP showed a protein stability index of 0.669 ± 0.017.
For APIRRPTCLSEV, the protein stability index was 0.708 ± 0.043.
APIWRSLRGLAI showed a protein stability index of 0.555 ± 0.18.
In the case of APLTVLTARSLF, the protein stability index is reported as 0.763 ± 0.055.
For APNPPPPPPPLP, the protein stability index was 0.729 ± 0.03.
APPFNPSRLSRP was tested, and the protein stability index was 0.725 ± 0.066.
Work on APPPLPPPTLPT yielded a protein stability index of 0.757 ± 0.041.
Sequence APPPNPPRPSSR has a protein stability index of 0.754 ± 0.032.
APPPPAVPHYRP gave a protein stability index of 0.667 ± 0.012.
In the case of APPPPHPRTPKP, the protein stability index is reported as 0.693 ± 0.069.
Work on APPPPPFPPPCA yielded a protein stability index of 0.694 ± 0.049.
Work on APPPPPPAPPLP yielded a protein stability index of 0.591 ± 0.028.
For APPPPPPFPPLP, the protein stability index was 0.684 ± 0.093.
APPPPPRISAWL showed a protein stability index of 0.745 ± 0.012.
With APPPPPVHPSSP the protein stability index was 0.734 ± 0.011.
Work on APPPPTPPPPPA yielded a protein stability index of 0.7 ± 0.019.
With APPSPTSPPTPP the protein stability index was 0.642 ± 0.1.
APRKTPPHPPPS showed a protein stability index of 0.689 ± 0.06.
For APRPSNRRPRPR, the protein stability index was 0.629 ± 0.025.
For APRRSPGWGPEG, the protein stability index was 0.731 ± 0.083.
APSEPVIYLPRV gave a protein stability index of 0.746 ± 0.14.
APSINVQVYWSG gave a protein stability index of 0.649 ± 0.041.
With APSPPFLPLTLT the protein stability index was 0.656 ± 0.035.
APSPPTRYLPLF was tested, and the protein stability index was 0.684 ± 0.019.
APSSPPPPTLPP gave a protein stability index of 0.716 ± 0.17.
In the case of APVGYNTVASAC, the protein stability index is reported as 0.685 ± 0.042.
With APVVSFTAPLAF the protein stability index was 0.619 ± 0.1.
AQERDGAIKKTH was tested, and the protein stability index was 0.7 ± 0.033.
AQLPRSFAPPLR showed a protein stability index of 0.868 ± 0.19.
With AQRRHGRSIRRD the protein stability index was 0.787 ± 0.019.
AQSYPHPPPPPP was tested, and the protein stability index was 0.644 ± 0.041.
ARACPLCFVMMF was tested, and the protein stability index was 0.559 ± 0.013.
ARCGNSAPWHVG gave a protein stability index of 0.693 ± 0.019.
Work on ARFYPPLPTDSL yielded a protein stability index of 0.708 ± 0.056.
ARGAPVSGRAGG showed a protein stability index of 0.6574 ± 0.005.
ARGDDGSTCSRG gave a protein stability index of 0.697 ± 0.059.
In the case of ARGGGPERIHPE, the protein stability index is reported as 0.66362 ± 0.00048.
Work on ARGIVAHKVTQP yielded a protein stability index of 0.65 ± 0.11.
In the case of ARHESRPTHSAQ, the protein stability index is reported as 0.6924 ± 0.0046.
For ARNMGLFVFNLR, the protein stability index was 0.6783 ± 0.0043.
For ARPAPHRSRRPS, the protein stability index was 0.68 ± 0.013.
For ARPAPPLPAIPL, the protein stability index was 0.663 ± 0.043.
Sequence ARPPRASRISSL has a protein stability index of 0.81 ± 0.044.
With ARRGATRGHAHV the protein stability index was 0.684 ± 0.046.
With ARSAGITSPSKD the protein stability index was 0.788 ± 0.12.
ARSPLTIGLYPF gave a protein stability index of 0.6915 ± 0.0016.
ARSSHVLQRSKV showed a protein stability index of 0.634 ± 0.018.
